Measurements from the RNAGym collection of RNA variant scans (doi:10.1073/pnas.2313332121).

B1: TPR t1 (parent)
chain: GACCAAUCUGCCCUCAGAGCUCGAGAACAUCUUCGGAUGCAGAGGAGGCAGGCUUCGGUGGCGCGAUAGCGCCAACGUCCUCAACCUCCAAUGCAUCCCACCACAUGAUGAUGCCUGAAGAGCCUUGGUUUUUUG

Variants of: B1
Experiment: polymerase ribozyme fitness, log enrichment relative to wild type (log ratio); higher = more active; in vitro selection for triplet polymerase activity
How it was run: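 Mutant libraries of each subunit of a heterodimeric triplet polymerase ribozyme were built by PCR and transcribed. Each library went through one round of in vitro selection in triplicate: annealing with biotinylated primer, partner subunit and triplets, frozen incubation at −7 °C, gel excision of extended constructs, streptavidin-bead capture and RT-PCR. Input and output libraries were Illumina-sequenced; only genotypes with ≥10 input reads and ≥1 read per output were kept. Fitness is log2(genotype enrichment/wild-type enrichment), using inverse-variance-weighted replicate averages.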

Point of comparison: GCCCAAUCUGCCCUCAGAGCUCGAGAACAUCUUCGGUUGCAGAGGAGGCAGGCUUCGGUGGCGCGAUAGCGCCAACGUCCUCAACCUCCAAUGCAUCCCACCACAUGAUGAUGCCUGAAGAGUCUUGGUUUUUUG [A2C A37U C123U], “polymerase ribozyme fitness (log ratio)” value -0.77. Against it:
- GCCCAAUCUGCCCUCAGAGCUCGAGAACAUCUUCGGAUGCAGAGGAGGCAGGCUUCGGUGGCGCGAUAGCGCCAACGUCCUCAAUCUCCAAUGCAUCCCACCACAUGAUGAUGCCUGAAGAGCCUUGGUUUUUUG [A2C C85U] — lower, -3.37
- GCCCAAUCUGCCCUCGGAGCUCGAGAACAUCUUCGGAUGCAGAGGAGGAAGGCUGCGGUGGCGCGAUAGCGCCAACGUCCUCAACCUCCAAUGCAUCCCACCACAUGAUGAUGCCUGAACAGCUUUGGUUUUUUG [A2C A16G C49A U55G G120C C124U] — lower, -1.14
- GCCUAAUCUGCCUUCAGAGCUCGAGAACAUCUUCGGAUGCAGAGGAGGCAGGCUUCGGUGGCGCGAUAGCGCCAACGUCCUCAACCUCCAAUGCAUCCCACCACAUGAUGAUGUCUGAAGAGCGUUGGUUUUUUG [A2C C4U C13U C114U C124G] — lower, -1.63
- GCCUAAUCUGCCCUCAGAGCUCGAGAACAUCUUCGUAUGCAGAGGAGGCAGGCUUCGGUGGCGCGAUAGCGCAAACGUCCUCAACCUCCAAUGCAUCCCACCAUAUGAUGAUGCCUGAAGAGCCUUGGUUUUUUG [A2C C4U G36U C73A C104U] — lower, -2.65
- GCCCAGUAUGCCCUCAGAGCUCGAGAACAUCUUCGGAUGCAGAGGAGGCAGGCUUCGGUGACGCGAUAGCGCCAACGUCCUCAACCUCCAAUGCAUCCCAGCACAUGAUGAUGCCUGAAGAGCCUUGGUUCUUUG [A2C A6G C8A G61A C101G U131C] — lower, -1.87
- GCCCAAUCUGCUCUCAGAGCUCGAGAACAUCUUCGGAUGCAUAGGAGGCAGGCUUCGGUGGCGCGAUAGCUCCAACGUCCUCAUCCUCCAAUGAAUCCCACCACAUGAUGAUGCCUGAAGAGCCUUGGAUUUUUG [A2C C12U G42U G71U A84U C94A U129A] — lower, -4.83
- GCCAAAUCUGCCCUCAGAGCUCGAGAACAUCUUCGGAUGCAGAGGAGGCAGGCUUCGGUGGCGCGAUAGCGCCAACGUCCUCAUCCUCCAAUGCAUCCCACCACAUGAUGAUGCGUGAAGAGCCUUGGUUUUUUG [A2C C4A A84U C115G] — lower, -5.82
- GCCAAAUCUGCCCUCAGAGCUCGAGAACAUCUUCGGAUGCAGAGGAGGCAGGCUUCGGUGGCGCGAUAGCGCCAACGUCCUCAACCUCCAAUGCAUCCCACCACAUGGUGAUGCCUGAAGAGCCUUGGUUUUUUG [A2C C4A A108G] — lower, -3.25
- GCCAAAUCUGCCCUCAGAGCUCGAGAACAUCUUCGGAUGCAGAAGAGGUAGGCUUCGGUGGCACGAUAGCGCCAACGUCCUCAACCUCCAAUGCAUCCCACCACAUGAUGAUGCCUGAAGAGCCUUGGUUUUUUG [A2C C4A G44A C49U G63A] — lower, -3.51
- GCCAAAUCUGCCCUCAGAGCUCGAGAACAUCUUCGGAUGCAGAGGAGGCAGGCUUCGGUGGCGCGAUAGCGCCAACGUCCUCAACCUCCAAUGCAUCCCACCACAUGAUGAUGCCUGAAGAGCCUUGGUUUUUUG [A2C C4A] — lower, -1.3
- GCCCAAUCUGCCCUCAGAGCUCGAGAACAUCUUCGGAUGCAGAGGAGGCUGGCUUCGGAGGCGCGAUAGCGCCAACGUCCUCAACCUCCAAUGCAUCCCACCACAUGAUGCUGCCUGAAGCGCCUUGGUUUUAUC [A2C A50U U59A A111C A121C U133A G135C] — lower, -1.62
- GCCCAAUCUGCCCUCAGAGCUCGAGAACAUCUUCGGAUGCAGAGGAGGCAGGCUUCGGUGGCGCGAUAGCGCCAACGUCCUCAGCCUCCAAUGCAUCCUACCACAUGAUGAUGCCUGAAGAGCCUUGGUUUUUUG [A2C A84G C99U] — lower, -6.59
- GCCCAAUCUGCCCUCAGAGCUCGAGAACAUCUUCGGAUGCAGAGGAGGCAGGCUUCGGUGGUGCGAUAGCGCCAACGUCCUCAACCUCCAAUGCAUCCCACCACAUGAUGAUGCCUGAAGAGCCUUGGUUUUUUG [A2C C62U] — lower, -2.03
- GCCCAAUCUGCCCUAAGAGCUCGAAAACAUCUUCGGAUGCAGAGGAGGCAGGCUUCGGUGGCGCGAUAGCUCCAACGUCUUCAACCUCCAAUGCAUCCCACCACAUGAUGAUGCCUGAACAGCCUUGGUUUUUUC [A2C C15A G25A G71U C80U G120C G135C] — lower, -4.64
- GCCCAAUCUGCCCUCAGAGCUCGAGAACAUCUUCGGAUGGAGAGGAGGCAGGCUUCGGUGGCGCGAUAGCGCCAACGUCCUCAACCUCCAAUGCAUCCCACCACAUGAUGAUGCCUGAAGAGCCUUGGUUUUUUG [A2C C40G] — lower, -2.5
- GCCCAAUCUGCCGUCUGAGCUCGAGAACAUCUUCGGAUGCAGAGGAGGCAGGCUUCGGUGGCGCGAUAGCGCCAACGUCCUCAACCUCCAAUGCAUCCCACCACAUGAUGAUGCCUGAAGAGCCUUGGUUUUUUG [A2C C13G A16U] — lower, -4.01
- GCCCAAUCUGCCCUCAGAGCUCGAGAACAUCUUCGGAUGCAGAGGAGGGAGGCUUCGGUGGCCCGAUAGCGCCUUCGUCCUCAACCUCCAAUGCAUCCCACCACAUGAUGAUGCCUGAAGAGCAUUGGUUUUUUG [A2C C49G G63C A74U A75U C124A] — lower, -3.35
- GCCCAAUCUGCCCUCAGAGCUCGAGAACAUCUUCGGAUGCAGAGGAGGCAGGCUUCGGUGGCGCGAUAGCGACAACGUCCUCAACCUCCAAUGCAUCCCACCACAUGAUUAUGCCUGAAGAGCCUUGGUUUUUUG [A2C C72A G110U] — lower, -4.2
- GCCCAAUCUGCCCUCAGAGCUCGAGAACAUCUUCGGAUGCAGAGGAGGCAGGCUUCGGUGGCGCGAUAGCGACAACGUCCUCAACCUCCAAUGCAUCCCACCACAUGAUGAUGCCUGAAGAGCCUUGGUUUUUUG [A2C C72A] — lower, -2.14
- GCCCAAUCUGCCCUCAGAGCUCGAGAACAUCUUCGGAUGCAGAGGAGGAAGGCUUCGGUGGCGCGAUAGCGCCAACGUCCUCAACCUCCAAUGCAUCCCACCACAUGAUGAUGCCUGAAGAGCCUUGGUUUUUUG [A2C C49A] — lower, -1.83
